This note sets out measurements from the supplement of paper PMC7877785.

± gives the uncertainty stated by the source.

The nature of the data set: self-splicing fitness, log relative to wild type (ln ratio); higher = more splicing; Tetrahymena group I intron in knt gene, E. coli kanamycin selection, DiMSum; sequences stand for … in CUCUCU…GGAGGGAAAAGUUAUCAGGCAUGCACCUGGUAGCUAGUCUUUAAACCAAUAGAUUGCAUCGGUUUAAAAGGCAAGACCGUCAAAUUGCGGGAAAGGGGUCAACAGCCGUUCAGUACCAAGUCUCAGGGGAAACUUUGAGAUGGCCUUGCAAAGGGUAUGGUAAUAAGCUGACGGACAUGGUCCUAACCACGCAGCCAAGUCCUAAGUCAACAGAUCUUCUGUUGAUAUGGAUGCAGUUCACAGACUAAAUGUCGGUCGGGGAAGAUGUAUUCUUCUCAUAAGAUAUAGUCGGACCUCUCCUUAAUGGGAGCUAGCGGAUGAAGUGAUGCAACACUGGAGCCGCUGGGAACUAAUUUGUAUGCGAAAGUAUAUUGAUUAGUUUUGGAGUACUCGUGGUCG
An outline of the steps: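 DiMSum derived fitness as the error-weighted combination of fold changes across replicates, kanamycin versus no kanamycin, normalised to wild type. E. coli BL21(DE3) held the library, which randomised all eight P1ex-region intron nucleotides within the knt kanamycin-resistance gene on pET-22b(+). Six replicate transformations grew overnight at 37°C or 30°C on LB agar with or without 25 μg/mL kanamycin, also containing 100 μg/mL carbenicillin, 50 μM IPTG and 0.2% rhamnose, and pooled colonies were amplicon-sequenced on an Illumina HiSeq 2500.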

Consider AUAAAGCAAUAUUACGUUAA, for which the “self-splicing fitness (ln)” value is -1.62 ± 0.087 (30 °C) and -1.16 ± 0.12 (37 °C).

Turning to AUACAGCAAUAUUACGAACA, the “self-splicing fitness (ln)” value is, setting by setting: (30 °C) -1.78 ± 0.17; (37 °C) 0.157 ± 0.14.

As to AUACAGCAAUAUUACGAAUA, the “self-splicing fitness (ln)” value is, setting by setting: (30 °C) -2.51 ± 0.12; (37 °C) -0.987 ± 0.11.

Consider AUACAGCAAUAUUACGACAU, for which the “self-splicing fitness (ln)” value reads like this: (30 °C) 0.131 ± 0.011; (37 °C) 0.288 ± 0.032.

For the sequence AUACAGCAAUAUUACGACGC, the “self-splicing fitness (ln)” value by setting is: (30 °C) -0.948 ± 0.13; (37 °C) 0.227 ± 0.16.

For the sequence AUACAGCAAUAUUACGAGAU, the “self-splicing fitness (ln)” value (30 °C) is -3.35 ± 0.14 and the “self-splicing fitness (ln)” value (37 °C) is -1.18 ± 0.11.

As for AUACAGCAAUAUUACGAUAG, the “self-splicing fitness (ln)” value is -2.57 ± 0.18 (30 °C) and -3 ± 0.34 (37 °C).

For the sequence AUACAGCAAUAUUACGCAGC, the “self-splicing fitness (ln)” value runs as follows: (30 °C) -4.34 ± 0.45; (37 °C) -1.87 ± 0.19.

Consider AUACAGCAAUAUUACGCAUC, for which the “self-splicing fitness (ln)” value is -3.69 ± 0.16 (30 °C) and -2.8 ± 0.21 (37 °C).

On to AUACAGCAAUAUUACGCCGC, for which the “self-splicing fitness (ln)” value reads like this: (30 °C) -3.8 ± 0.27; (37 °C) -2.19 ± 0.2.

Turning to AUACAGCAAUAUUACGCCUA, the “self-splicing fitness (ln)” value is, setting by setting: (30 °C) -1.1 ± 0.11; (37 °C) -0.472 ± 0.12.

AUACAGCAAUAUUACGCUGU: the “self-splicing fitness (ln)” value reads like this: (30 °C) -4.13 ± 0.36; (37 °C) -3.51 ± 0.33.

AUACAGCAAUAUUACGGAAG: the “self-splicing fitness (ln)” value is -3.36 ± 0.14 (30 °C) and -2.21 ± 0.14 (37 °C).

With AUACAGCAAUAUUACGGAAU, the “self-splicing fitness (ln)” value (30 °C) was -2.34 ± 0.1 and the “self-splicing fitness (ln)” value (37 °C) is -1.54 ± 0.13.

Consider AUACAGCAAUAUUACGGAGU, for which the “self-splicing fitness (ln)” value was -1.72 ± 0.085 (30 °C) and -1.72 ± 0.11 (37 °C).

As to AUACAGCAAUAUUACGGAUG, the “self-splicing fitness (ln)” value was -2.7 ± 0.2 (30 °C) and -2.05 ± 0.14 (37 °C).

Consider AUACAGCAAUAUUACGGCAA, for which the “self-splicing fitness (ln)” value is, setting by setting: (30 °C) -0.488 ± 0.076; (37 °C) 0.0743 ± 0.078.

AUACAGCAAUAUUACGGCCC: the “self-splicing fitness (ln)” value is -1.15 ± 0.19 (30 °C) and -0.184 ± 0.28 (37 °C).

As to AUACAGCAAUAUUACGGCGA, the “self-splicing fitness (ln)” value was -1.08 ± 0.096 (30 °C) and -0.781 ± 0.11 (37 °C).

Regarding AUACAGCAAUAUUACGGGAC, the “self-splicing fitness (ln)” value is -2.14 ± 0.15 (30 °C) and -1.74 ± 0.17 (37 °C).

For AUACAGCAAUAUUACGGGGA, the “self-splicing fitness (ln)” value by setting is: (30 °C) -2.98 ± 0.21; (37 °C) -2.3 ± 0.14.

As to AUACAGCAAUAUUACGGGGC, the “self-splicing fitness (ln)” value was -2.65 ± 0.12 (30 °C) and -3.57 ± 0.2 (37 °C).

For AUACAGCAAUAUUACGUAGA, the “self-splicing fitness (ln)” value (30 °C) was -2.11 ± 0.085 and the “self-splicing fitness (ln)” value (37 °C) was -0.327 ± 0.076.

As for AUACAGCAAUAUUACGUCCC, the “self-splicing fitness (ln)” value runs as follows: (30 °C) -0.874 ± 0.14; (37 °C) -0.261 ± 0.18.

On to AUACAGCAAUAUUACGUGAC, for which the “self-splicing fitness (ln)” value by setting is: (30 °C) -1.57 ± 0.095; (37 °C) -0.945 ± 0.13.

For the sequence AUACAGCAAUAUUACGUGAG, the “self-splicing fitness (ln)” value runs as follows: (30 °C) -1.51 ± 0.06; (37 °C) -0.677 ± 0.097.

AUACAGCAAUAUUACGUGCA: the “self-splicing fitness (ln)” value runs as follows: (30 °C) -1.01 ± 0.083; (37 °C) -0.648 ± 0.085.

Consider AUACAGCAAUAUUACGUGGU, for which the “self-splicing fitness (ln)” value runs as follows: (30 °C) -2.71 ± 0.13; (37 °C) -2.27 ± 0.14.

For AUACAGCAAUAUUACGUGUA, the “self-splicing fitness (ln)” value (30 °C) is -2.3 ± 0.093 and the “self-splicing fitness (ln)” value (37 °C) was -1.32 ± 0.095.

As to AUACAGCAAUAUUACGUUAA, the “self-splicing fitness (ln)” value by setting is: (30 °C) -3.26 ± 0.18; (37 °C) -1.41 ± 0.11.

As for AUACAGCAAUAUUACGUUCC, the “self-splicing fitness (ln)” value is -2.46 ± 0.15 (30 °C) and -0.684 ± 0.14 (37 °C).

For AUACAGCAAUAUUACGUUGA, the “self-splicing fitness (ln)” value (30 °C) was -2.53 ± 0.095 and the “self-splicing fitness (ln)” value (37 °C) is -1.44 ± 0.088.

With AUAGAGCAAUAUUACGACAC, the “self-splicing fitness (ln)” value reads like this: (30 °C) -0.57 ± 0.15; (37 °C) -0.0339 ± 0.2.

Regarding AUAGAGCAAUAUUACGACCC, the “self-splicing fitness (ln)” value runs as follows: (30 °C) -2.56 ± 0.47; (37 °C) -1.4 ± 0.42.

Consider AUAGAGCAAUAUUACGACUC, for which the “self-splicing fitness (ln)” value (30 °C) was -0.707 ± 0.11 and the “self-splicing fitness (ln)” value (37 °C) was -0.0412 ± 0.15.

Turning to AUAGAGCAAUAUUACGAGUG, the “self-splicing fitness (ln)” value by setting is: (30 °C) -3.25 ± 0.21; (37 °C) -0.0938 ± 0.18.

Take AUAGAGCAAUAUUACGCCUU: the “self-splicing fitness (ln)” value runs as follows: (30 °C) -1.66 ± 0.12; (37 °C) 0.354 ± 0.16.
